Changes are numbered by the printed parent chain.
Biological target: T1, Man9-V3 glycopeptide (cyclic)
T1 peptide: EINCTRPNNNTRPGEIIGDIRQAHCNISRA
Assay: BLI

B1: DH270.2 (antibody, V domains shown)
VH: QVQLVQSGAEMKKPGASVRVSCKASGYTFTDYYIHWVRQAPGQGPEWMGWINPSTGRTNSPQKFQGRVIMTRDTSISTAYMDLNRLTSDDTAMYYCTTGGWIGLYSDTSGYPNFDYWGQGTLVTVSS
VL: QSALTQPASVSGSPGQSITISCTGTNYDVGSYNLVSWYQQHPGKVPKYIIYEVNKRPSGVSNRFSGSKSGNTASLTISGLQAEDEADYYCCSYAGSSIIFFGGGTKLTVI
Kd: 4770 nM

B2: DH270.3 (antibody, V domains shown)
VH: QVQLVQSGAEMKNPGASVKVSCAASGYTFTDFYIHWVRLAPGQGLEWMGWMNPKTGRTNNAQNFQGRVIMTRDTSIGTAYMELRRLTSDDTAVYYCVTGGWISPYYDSSYYPNFDHWGQGTLVTVSS
VL: QSALTQPASVSGSPGQSITISCTGTSYDVGKFDLVSWYQQHPGKAPKYMIYEVNKWPSGVSHRFSGSKSGNTASLTISGLQAEDEADYYCCSFGGSATVVCGGGTKVTVL
Kd: 195 nM

B3: DH270.4 (antibody, V domains shown)
VH: B2 VH with Q1E, T28G, Q43H, E46Q, N63D, M70L, V123I
VL: B2 VL with G30A, Y38F
Kd: 346 nM

B4: DH270.5 (antibody, V domains shown)
VH: B2 VH with M11V, A24P, M48L, N60Q, A61G, R85S, G100A, P104D
VL: B2 VL with Q1L, S2P, A3V, S26I, Q40H, M49L, N54K, A82V, T98A
Kd: 281 nM

— patent US20200113997A1 (published 2020)
